Sequences and labels used below:
B1: EcSufS, untagged (wild type) (enzyme, Escherichia coli)
chain: MIFSVDKVRADFPVLSREVNGLPLAYLDSAASAQKPSQVIDAEAEFYRHGYAAVHRGIHTLSAQATEKMENVRKRASLFINARSAEELVFVRGTTEGINLVANSWGNSNVRAGDNIIISQMEHHANIVPWQMLCARVGAELRVIPLNPDGTLQLETLPTLFDEKTRLLAITHVSNVLGTENPLAEMITLAHQHGAKVLVDGAQAVMHHPVDVQALDCDFYVFSGHKLYGPTGIGILYVKEALLQEMPPWEGGGSMIATVSLSEGTTWTKAPWRFEAGTPNTGGIIGLGAALEYVSALGLNNIAEYEQNLMHYALSQLESVPDLTLYGPQNRLGVIAFNLGKHHAYDVGSFLDNYGIAVRTGHHCAMPLMAYYNVPAMCRASLAMYNTHEEVDRLVTGLQRIHRLLG
modifications: PLP (pyridoxal 5'-phosphate) cofactor
notes: EcSufS, cysteine desulfurase SufS of Escherichia coli, UniProt P77444; Untagged version used for crystallography and with the EcSufE variants; In samples with cysteine the active site cysteine is thought to carry a persulfide; also called SufSA; SufSB
B2: BODIPY-FL-labeled T116A EcSufE in the C51A/E107C background (natural protein, Escherichia coli)
chain: MALLPDKEKLLRNFLRCANWEEKYLYIIELGQRLPELRDEDRSPQNSIQGAQSQVWIVMRQNAQGIIELQGDSDAAIVKGLIAVVFILYDQMTPQDIVNFDVRPWFCKMALTQHLAPSRSQGLEAMIRAIRAKAAALS
modifications: BODIPY-FL maleimide label (labeling efficiency 60 to 80%)
notes: EcSufE of Escherichia coli, UniProt P76194, with C51A, E107C and T116A; also called T116A SufE; source: E. coli BL21(DE3)Δsuf, pET21, purified, labeled with BODIPY-FL maleimide
B3: BODIPY-FL-labeled Q121E EcSufE in the C51A/E107C background (natural protein, Escherichia coli)
chain: B2 chain with A116T, Q121E
modifications: BODIPY-FL maleimide label (labeling efficiency 60 to 80%)
notes: EcSufE of Escherichia coli, UniProt P76194, with C51A, E107C and Q121E; also called Q121E SufE; source: E. coli BL21(DE3)Δsuf, pET21, purified, labeled with BODIPY-FL maleimide
B4: BODIPY-FL-labeled Q121A EcSufE in the C51A/E107C background (natural protein, Escherichia coli)
chain: B2 chain with A116T, Q121A
modifications: BODIPY-FL maleimide label (labeling efficiency 60 to 80%)
notes: EcSufE of Escherichia coli, UniProt P76194, with C51A, E107C and Q121A; also called Q121A SufE; source: E. coli BL21(DE3)Δsuf, pET21, purified, labeled with BODIPY-FL maleimide
B5: BODIPY-FL-labeled T116S EcSufE in the C51A/E107C background (natural protein, Escherichia coli)
chain: B2 chain with A116S
modifications: BODIPY-FL maleimide label (labeling efficiency 60 to 80%)
notes: EcSufE of Escherichia coli, UniProt P76194, with C51A, E107C and T116S; also called T116S SufE; source: E. coli BL21(DE3)Δsuf, pET21, purified, labeled with BODIPY-FL maleimide
B6: BODIPY-FL-labeled R119A EcSufE in the C51A/E107C background (natural protein, Escherichia coli)
chain: B2 chain with A116T, R119A
modifications: BODIPY-FL maleimide label (labeling efficiency 60 to 80%)
notes: EcSufE of Escherichia coli, UniProt P76194, with C51A, E107C and R119A; also called R119A SufE; R119A EcSufE (in double mutant background); source: E. coli BL21(DE3)Δsuf, pET21, purified, labeled with BODIPY-FL maleimide
B7: BODIPY-FL-labeled R119K EcSufE in the C51A/E107C background (natural protein, Escherichia coli)
chain: B2 chain with A116T, R119K
modifications: BODIPY-FL maleimide label (labeling efficiency 60 to 80%)
notes: EcSufE of Escherichia coli, UniProt P76194, with C51A, E107C and R119K; also called R119K SufE; source: E. coli BL21(DE3)Δsuf, pET21, purified, labeled with BODIPY-FL maleimide
B8: C51A/E107C EcSufE (unlabeled, crystallised) (natural protein, Escherichia coli)
chain: B2 chain with A116T
notes: EcSufE of Escherichia coli, UniProt P76194, with C51A and E107C; also called SufE C51A/E107C; SufE (C51A, E107C)

The target of series [1] is SufE (Escherichia coli) (UniProt P76194). Put plainly: fluorescence polarization. The conditions noted are these: cited from earlier work. For orientation: In fluorescence polarisation assays a small probe gives low polarisation when free and higher when bound to something large.
Series [2] deals with the molecule itself. Put plainly: crystal structure; 230 μM SufS, 230 μM SufE (C51A, E107C) and 2 mM Cys; sitting drop vapor diffusion, PEG2000 MME, 0.1 M KSCN, 20 °C.
For series [3], the target named is B1. The series is described as follows: fluorescence polarisation; 100 nM BODIPY-FL-labeled EcSufE titrated with EcSufS; 50 mM Mops pH 8.0, 150 mM NaCl, 0.1 mg/ml bovine serum albumin, 25 °C, 30 min; absence of cysteine; apparent KD. The note with it: both partners purified.
Series [4] deals with B1. Put plainly: fluorescence polarisation; 100 nM BODIPY-FL-labeled EcSufE titrated with EcSufS; 50 mM Mops pH 8.0, 150 mM NaCl, 0.1 mg/ml bovine serum albumin, 25 °C, 30 min; presence of 500 μM cysteine; apparent KD. The conditions noted are these: both partners purified.
Series [5] addresses B1. The series is described as follows: crystal structure; 230 μM SufS, 230 μM SufE (C51A, E107C) and 2 mM Cys; sitting drop vapor diffusion, PEG2000 MME, 0.1 M KSCN, 20 °C. The conditions noted are these: both partners purified.

Where a chain is given by its changes, count along the chain named. Names and notes keep the numbering of the source.

In the case of SufS (from UniProt P77444), the Kd in series [1] was 5000 nM.
Regarding B1, the binding result in series [2] was “binds”.
Turning to B2, the Kd is 2300 nM in series [3] and 800 nM in series [4].
Regarding B3, the Kd was 7000 nM in series [3] and 500 nM in series [4].
Regarding B4, the results for the Kd in series [3] and in series [4] were 5900 nM and 3600 nM, respectively.
As to B5, the results for the Kd in series [3] and in series [4] were 2200 nM and 3100 nM, respectively.
The like results for B6 were, in that order, 300 nM and 500 nM.
On to B7, for which the values for the Kd in series [3] and in series [4] were 1600 nM and 900 nM, respectively.
As to B8, in series [5], the “stoichiometry N” value stood at 1.

A word on the stoichiometry N: it is a count of units in the complex or per binding partner.

Source of the values: publication PMC11408855, “The structure of the SufS–SufE complex reveals interactions driving protected persulfide transfer in iron-sulfur cluster biogenesis” (The Journal of Biological Chemistry, 2024).
